Test results from patent US20240410900A1 (Hoffmann-La Roche, published 2024).

Legend:
[1] = target: T1, anti-VEGF/ANG2 antibody (IgG1 subclass with mutations P329G/L234A/L235A); test: ELISA assay C, tracer FcγRI-Dig, target 13 ng/mL
T1 construct: Positions are EU numbers; also called sample 2; antibody 2

[2] = target: T2, anti-P-Selectin antibody (IgG4 subclass with mutations S228P/L235E); test: ELISA assay C, tracer FcγRI-Dig, target 13 ng/mL
T2 construct: Positions are EU numbers; also called sample 4; antibody 4

[3] = target: T3, anti-VEGF/ANG2 antibody (wild-type IgG1 subclass) (UniProt P01857-1 1-330 = IgG part); test: ELISA assay C, tracer FcγRI-Dig, target 13 ng/mL
T3 construct: also called sample 5; antibody 5

[4] = target: T4, anti-VEGF/ANG2 antibody (IgG1 subclass with mutations P329G/L234A/L235A/I253A/H310A/H435A); test: ELISA assay C, tracer FcγRI-Dig, target 13 ng/mL
T4 construct: Format of the bispecific antibody not described; Positions are EU numbers, not positions on the UniProt entry; also called sample 1; antibody 1

[5] = target: T5, anti-IGF-1R antibody (IgG1 subclass with mutations I253A/H310A/H435A); test: ELISA assay C, tracer FcγRI-Dig, target 13 ng/mL
T5 construct: Positions are EU numbers; also called sample 3; antibody 3

[6] = target: T1, anti-VEGF/ANG2 antibody (IgG1 subclass …); test: ELISA assay C, tracer FcγRI-Dig, target 6 ng/mL
[7] = target: T2, anti-P-Selectin antibody (IgG4 subclass …); test: ELISA assay C, tracer FcγRI-Dig, target 6 ng/mL
[8] = target: T3, anti-VEGF/ANG2 antibody (wild-type IgG1 …); test: ELISA assay C, tracer FcγRI-Dig, target 6 ng/mL
[9] = target: T4, anti-VEGF/ANG2 antibody (IgG1 subclass …); test: ELISA assay C, tracer FcγRI-Dig, target 6 ng/mL
[10] = target: T5, anti-IGF-1R antibody (IgG1 subclass …); test: ELISA assay C, tracer FcγRI-Dig, target 6 ng/mL
[11] = target: T1, anti-VEGF/ANG2 antibody (IgG1 subclass …); test: ELISA assay B, tracer M1.7.10-Dig, target 100 ng/mL
Protocol: (§1) Biotinylated anti-PG Fc-region antibody or biotinylated anti-AAA Fc-region antibody, respectively, was bound to the wells of a streptavidin-coated multi-well plate (SA-MTP) to produce a capture plate. Excess of unbound antibody was removed by washing. Sample/standard antibodies spiked in human and cynomolgus monkey serum (10% final concentration) was added to wells of the SA-MTP multi-well plate coated with the capture plate and incubated for 1 hour at room temperature. After washing, the wells were incubated with digoxygenylated anti-human kappa antibody M1.7.10 (see e.g. WO 2011/048043, incorporated herein by reference). After washing the bound digoxygenylated anti-human kappa antibody complex was incubated with a horseradish peroxidase (HRP) labelled anti-digoxygenin antibody. After another washing step, an ABTS solution was added to the wells and incubated. The product of the color reaction was measured by Elisa reader at 405 nm wavelength (reference wavelength: 490 nm). Absorbance values of each sample or standard were determined in triplicates.

[12] = target: T2, anti-P-Selectin antibody (IgG4 subclass …); test: as above
Protocol: as §1

[13] = target: T3, anti-VEGF/ANG2 antibody (wild-type IgG1 …); test: as above
Protocol: as §1

[14] = target: T4, anti-VEGF/ANG2 antibody (IgG1 subclass …); test: as above
Protocol: as §1

[15] = target: T5, anti-IGF-1R antibody (IgG1 subclass …); test: as above
Protocol: as §1

[16] = target: T1, anti-VEGF/ANG2 antibody (IgG1 subclass …); test: ELISA assay B, tracer M1.7.10-Dig, target 6 ng/mL
Protocol: as §1

[17] = target: T2, anti-P-Selectin antibody (IgG4 subclass …); test: ELISA assay B, tracer M1.7.10-Dig, target 6 ng/mL
Protocol: as §1

[18] = target: T4, anti-VEGF/ANG2 antibody (IgG1 subclass …); test: ELISA assay B, tracer M1.7.10-Dig, target 6 ng/mL
Protocol: as §1

[19] = target: T1, anti-VEGF/ANG2 antibody (IgG1 subclass …); test: ELISA assay C, tracer FcγRI-Dig, target 3 ng/mL
[20] = target: T2, anti-P-Selectin antibody (IgG4 subclass …); test: ELISA assay C, tracer FcγRI-Dig, target 3 ng/mL
[21] = target: T3, anti-VEGF/ANG2 antibody (wild-type IgG1 …); test: ELISA assay C, tracer FcγRI-Dig, target 3 ng/mL
[22] = target: T4, anti-VEGF/ANG2 antibody (IgG1 subclass …); test: ELISA assay C, tracer FcγRI-Dig, target 3 ng/mL
[23] = target: T5, anti-IGF-1R antibody (IgG1 subclass …); test: ELISA assay C, tracer FcγRI-Dig, target 3 ng/mL

Row | signal [OD405 nm] [1] | signal [OD405 nm] [2] | signal [OD405 nm] [3] | signal [OD405 nm] [4] | signal [OD405 nm] [5] | signal [OD405 nm] [6] | signal [OD405 nm] [7] | signal [OD405 nm] [8] | signal [OD405 nm] [9] | signal [OD405 nm] [10] | signal [OD405 nm] [11] | signal [OD405 nm] [12] | signal [OD405 nm] [13] | signal [OD405 nm] [14] | signal [OD405 nm] [15] | signal [OD405 nm] [16] | signal [OD405 nm] [17] | signal [OD405 nm] [18] | signal [OD405 nm] [19] | signal [OD405 nm] [20] | Binder | other results
1 | 1.23 OD405 nm | 1.16 OD405 nm | 1.17 OD405 nm | 1.14 OD405 nm | 1.21 OD405 nm | 1.22 OD405 nm | 1.18 OD405 nm | 1.17 OD405 nm | 1.17 OD405 nm | 1.21 OD405 nm | 0.216 OD405 nm | 0.048 OD405 nm | 0.043 OD405 nm | 0.035 OD405 nm | 0.05 OD405 nm | 0.196 OD405 nm | 0.048 OD405 nm | 0.035 OD405 nm | 1.22 OD405 nm | 1.19 OD405 nm | anti-PG variant Fc-region antibody M1.3.17 (antibody, V domains shown, Monomeric, bivalent full-length antibody with murine variable domains; Biotinylated when used as capture antibody; also called anti-PG antibody clone 1.3.17; M1.3.17-Bi) VH: EVKLLESGGGLVQPGGSLKLSCAASGIDFRRYWMNWVRQAPGKGLEWIGEIDPDSSTINYTPSLKDKFIISRDNAKNTMYLQMRKVRSEDTALYYCARPYDYGAWFAYWGQGTLVTVSA VL: QAVVTQESALTTSPGETVTLTCRSTTGAVTTSNYANWVQEKPDHLFTGLIGGTNKRAPGVPARFSGSLIGDKAALTITGAQTEDEAIYFCALWYSDHWVFGGGTKLTVL | signal [OD405 nm] [21]: 1.19 OD405 nm; signal [OD405 nm] [22]: 1.16 OD405 nm; signal [OD405 nm] [23]: 1.21 OD405 nm
2 | 0.06 OD405 nm | 0.066 OD405 nm | 0.057 OD405 nm | 0.085 OD405 nm | 0.058 OD405 nm | 0.06 OD405 nm | 0.053 OD405 nm | 0.057 OD405 nm | 0.079 OD405 nm | 0.069 OD405 nm | 3.23 OD405 nm | 0.05 OD405 nm | 0.047 OD405 nm | 0.057 OD405 nm | 0.098 OD405 nm | 2.98 OD405 nm | 0.037 OD405 nm | 0.053 OD405 nm | 0.057 OD405 nm | 0.053 OD405 nm | anti-PG variant Fc-region antibody M1.7.24 (monomeric, bivalent) (antibody, V domains shown, Full-length Y-shaped antibody with murine variable domains; Biotinylated when used as capture antibody; also called anti-PG antibody clone 1.7.24; M1.7.24-Bi) VH: EVKLLESGGGLVQPGGSLKLSCAASGFDFSRYWMNWVRQAPGKGLEWIGEITPDSSTINYTPSLKDKFIISRDNAKNTLYLQMIKVRSEDTALYYCVRPYDYGAWFASWGQGTLVTVSA VL: QAVVTQESALTTSPGETVTLTCRSSTGAVTTSNYANWVQEKPDHLFTGLIGGTNKRAPGVPARFSGSLIGDKAALTITGAQTEDEAIYFCALWYSNHWVFGGGTKLTVL | signal [OD405 nm] [21]: 0.053 OD405 nm; signal [OD405 nm] [22]: 0.094 OD405 nm; signal [OD405 nm] [23]: 0.077 OD405 nm
3 | 0.061 OD405 nm | 0.052 OD405 nm | 0.07 OD405 nm | 0.064 OD405 nm | 0.175 OD405 nm | 0.06 OD405 nm | 0.051 OD405 nm | 0.064 OD405 nm | 0.06 OD405 nm | 0.104 OD405 nm | 0.21 OD405 nm | 0.051 OD405 nm | 0.061 OD405 nm | 0.052 OD405 nm | 2.9 OD405 nm | 0.053 OD405 nm | 0.04 OD405 nm | 0.039 OD405 nm | 0.068 OD405 nm | 0.05 OD405 nm | anti-AAA variant Fc-region antibody M1.6.22 (antibody, V domains shown, Murine variable domains; also called M1.6.22-Bi) VH: EVQLVESGGDLVKPGGSLKLSCAASGFTFSSYGMSWVRQTPDKRLEWVATISSGGSYIYYPDSVKGRFTISRDNAKNTLYLQMSSLKSEDTAMYYCARLGMITTGYAMDYWGQGTSVTVSS VL: DVLMTQTPLSLPVSLGDQASISCRSSQTIVHSTGHTYLEWFLQKPGQSPKLLIYKVSNRFSGVPDRFSGSGSGTDFTLKISRVEAEDLGVYYCFQGSHVPYTFGGGTKLEIK | signal [OD405 nm] [21]: 0.069 OD405 nm; signal [OD405 nm] [22]: 0.066 OD405 nm; signal [OD405 nm] [23]: 0.083 OD405 nm
